The values below come from paper PMC5855711.

Common to all, as to details: remark: other sources report otherwise
Experiment [1] deals with T1, human recombinant HSP60 (without mitochondrial signal sequence) (human), P10809. As to the kind of experiment: transmission electron microscopy (uranyl acetate stain); 1 mM ADP; HSP60 0.1 μM alone or with HSP10 0.2 μM, buffer D, 25 °C, 10 min.
Experiment [2] has as its target T1, human recombinant HSP60 (without …). The experiment is described as follows: SEC; Superdex 200 10/300 GL, 0.41 μM HSP60 or GroEL, 0.1 M NaCl, 5% glycerol, 50 mM HEPES-KOH pH 7.4, no nucleotide; size from a calibration curve.
Experiment [3] has the same target. The experiment is described as follows: small angle X-ray scattering (SAXS); 1 mM ATP; 3.0 mg/mL HSP60 or GroEL with various concentrations of co-chaperone, buffer D, 25 °C; self-association: single ring (7) to double ring (14).
Experiment [4] has the same target. The experiment is described as follows: transmission electron microscopy (uranyl acetate stain); no nucleotide; HSP60 0.1 μM alone or with HSP10 0.2 μM, or GroEL 0.1 μM with GroES 0.2 μM, buffer D (10 mM MgCl2, 20 mM KCl, 1 mM DTT, 50 mM HEPES-KOH pH 7.4), 25 °C, 10 min.
For experiment [5] the target is unchanged. As to the kind of experiment: transmission electron microscopy (uranyl acetate stain); 1 mM ATP; HSP60 (wild type or D398A) 0.1 μM alone or with HSP10 0.2 μM, or GroEL 0.1 μM with GroES 0.2 μM, buffer D, 25 °C, 10 min; more than 500 side views counted, three experiments; self-association: single ring (7) to double ring (14).

B1: human recombinant HSP60 (without mitochondrial signal sequence), P10809 27-573 (natural protein)
chain: AKDVKFGADARALMLQGVDLLADAVAVTMGPKGRTVIIEQSWGSPKVTKDGVTVAKSIDLKDKYKNIGAKLVQDVANNTNEEAGDGTTTATVLARSIAKEGFEKISKGANPVEIRRGVMLAVDAVIAELKKQSKPVTTPEEIAQVATISANGDKEIGNIISDAMKKVGRKGVITVKDGKTLNDELEIIEGMKFDRGYISPYFINTSKGQKCEFQDAYVLLSEKKISSIQSIVPALEIANAHRKPLVIIAEDVDGEALSTLVLNRLKVGLQVVAVKAPGFGDNRKNQLKDMAIATGGAVFGEEGLTLNLEDVQPHDLGKVGEVIVTKDDAMLLKGKGDKAQIEKRIQEIIEQLDVTTSEYEKEKLNERLAKLSDGVAVLKVGGTSDVEVNEKKDRVTDALNATRAAVEEGIVLGGGCALLRCIPALDSLTPANEDQKIGIEIIKRTLKIPAMTIAKNAGVEGSLIVEKIMQSSSEVGYDAMAGDFVNMVEKGIIDPTKVVRTALLDAAGVASLLTTAEVVVTEIPKEEKDPGMGAMGGMGGGMGGGMF
Turning to B1, in experiment [1], the stoichiometry N came to 7. For the same molecule, the stoichiometry N in experiment [2] was determined as 7.3 subunits. In experiment [3], the fraction of double-ring HSP60 (curve fitting, HSP60+ATP) was found to be 0.14; the fraction of single-ring HSP60 (curve fitting, HSP60+ATP) is 0.86; the fraction of single-ring HSP60 without HSP10 (curve fitting, HSP10 and ATP present) turned out to be 0.09; the percent of HSP60 in double rings (from I(0)/C, ATP, no HSP10) was 50%. For the same molecule, in experiment [4], the stoichiometry N is 7. In experiment [5], the percent of HSP60-containing complexes with the double-ring structure (with HSP10 and ATP) stood at 80%; the percent of HSP60 in double rings, football-type and bullet-type (with HSP10 and ATP) was found to be 70%; the percent of side views that are HSP60 (7), single ring alone (with HSP10 and ATP) was 10%; the percent of side views that are HSP60 (14), double ring alone (with HSP10 and ATP) was 2%.
